Laboratory results from patent publication US20100260668A1 (published 2010).

What was measured:
VEGF [1] = target: T1, VEGF (UniProt P15692-4 27-191); assay: SPR (Biacore), DVD-Ig captured, VEGF in solution
T1 construct: Bought reagent; also called vascular endothelial growth factor
T1 sequence (P15692 other isoform, or with tags, fused parts or gaps limits assumed): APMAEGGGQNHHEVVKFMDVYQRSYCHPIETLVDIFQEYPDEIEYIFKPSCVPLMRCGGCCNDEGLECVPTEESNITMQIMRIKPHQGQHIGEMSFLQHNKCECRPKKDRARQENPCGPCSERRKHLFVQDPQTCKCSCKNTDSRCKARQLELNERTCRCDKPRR

VEGF [2] = target: T2, VEGF (UniProt P15692-4 27-191); assay: BIACORE SPR
T2 construct: Bought reagent; also called vascular endothelial growth factor
T2 sequence (P15692 other isoform, or with tags, fused parts or gaps limits assumed): as above

Binder | Kd (VEGF [1]) | koff (VEGF [1]) | kon (VEGF [1]) | Kd (VEGF [2]) | koff (VEGF [2]) | kon (VEGF [2])
DVD520 (bispecific antibody, human IgG1, kappa, lambda, DVD-Ig; N-term; VD AB070 (VEGF), C-term; VD AB073 (DLL4); HC linker long, LC linker long; also called DVD520H; DVD520L) heavy: not shown light: DIQMTQSPSSLSASVGDRVTITCRASQDVSTAVAWYQQKPGKAPKLLIYSASFLYSGVPSRFSGSGSGTDFTLTISSLQPEDFATYYCQQSYTTPPTFGQGTKVEIKRTVAAPSVFIFPPQAVVTQESALTTSPGETVTLTCRSSTGAVTTSNYANWVQEKPDHLFTGLIGGTNNRAPGVPARFSGSLIGDKAALTITGAQTEDEAIYFCALWYSNHWVFGGGTKLTVLGQPKAAPSVTLFPPSSEELQANKATLVCLISDFYPGAVTVAWKADSSPVKAGVETTTPSKQSNNKYAASSYLSLTPEQWKSHRSYSCQVTHEGSTVEKTVAPTECS | 0.817 nM | 0.000961 s⁻¹ | 1.18e+06 M⁻¹ s⁻¹ | – | – | –
DVD043 (bispecific antibody, human IgG1, kappa, DVD-Ig; N-term; AB014 (VEGF), C-term; AB015 (DLL4); HC linker short, LC linker short; also called DVD043H; DVD043L) heavy: not shown light: DIQMTQSPSSLSASVGDRVTITCSASQDISNYLNWYQQKPGKAPKVLIYFTSSLHSGVPSRFSGSGSGTDFTLTISSLQPEDFATYYCQQYSTVPWTFGQGTKVEIKRTVAAPDIQMTQSPSSLSASVGDRVTITCRASQDVSTAVAWYQQKPGKAPKLLIYSASFLYSGVPSRFSGSGSGTDFTLTISSLQPEDFATTYYCQQSYTGTVTFGQGTKVEIKRTVAAPSVFIFPPSDEQLKSGTASVVCLLNNFYPREAKVQWKVDNALQSGNSQESVTEQDSKDSTYSLSSTLTLSKADYEKHKVYACEVTHQGLSSPVTKSFNRGEC | – | – | – | 0.0746 nM | 0.000125 s⁻¹ | 1.68e+06 M⁻¹ s⁻¹
DVD476 (bispecific antibody, human IgG1, kappa, DVD-Ig; N-term; AB014 (VEGF), C-term; AB015 (DLL4); HC linker long, LC linker short; also called DVD476H; DVD476L) heavy: not shown light: DIQMTQSPSSLSASVGDRVTITCSASQDISNYLNWYQQKPGKAPKVLIYFTSSLHSGVPSRFSGSGSGTDFTLTISSLQPEDFATYYCQQYSTVPWTFGQGTKVEIKRTVAAPDIQMTQSPSSLSASVGDRVTITCRASQDVSTAVAWYQQKPGKAPKLLIYSASFLYSGVPSRFSGSGSGTDFTLTISSLQPEDFATTYYCQQSYTGTVTFGQGTKVEIKRTVAAPSVFIFPPSDEQLKSGTASVVCLLNNFYPREAKVQWKVDNALQSGNSQESVTEQDSKDSTYSLSSTLTLSKADYEKHKVYACEVTHQGLSSPVTKSFNRGEC | – | – | – | 0.0281 nM | 4.74e-05 s⁻¹ | 1.69e+06 M⁻¹ s⁻¹
DVD470 (bispecific antibody, human IgG1, kappa, DVD-Ig; N-term; AB014 (VEGF), C-term; AB015 (DLL4); HC linker long, LC linker long; also called DVD470H; DVD470L) heavy: not shown light: DIQMTQSPSSLSASVGDRVTITCSASQDISNYLNWYQQKPGKAPKVLIYFTSSLHSGVPSRFSGSGSGTDFTLTISSLQPEDFATYYCQQYSTVPWTFGQGTKVEIKRTVAAPSVFIFPPDIQMTQSPSSLSASVGDRVTITCRASQDVSTAVAWYQQKPGKAPKLLIYSASFLYSGVPSRFSGSGSGTDFTLTISSLQPEDFATTYYCQQSYTGTVTFGQGTKVEIKRTVAAPSVFIFPPSDEQLKSGTASVVCLLNNFYPREAKVQWKVDNALQSGNSQESVTEQDSKDSTYSLSSTLTLSKADYEKHKVYACEVTHQGLSSPVTKSFNRGEC | – | – | – | 0.201 nM | 0.00024 s⁻¹ | 1.2e+06 M⁻¹ s⁻¹
DVD514 (bispecific antibody, human IgG1, lambda, DVD-Ig; N-term; VD AB070 (VEGF), C-term; VD AB073 (DLL4); HC linker short, LC linker short; also called DVD514H; DVD514L) heavy: not shown light: DIQMTQSPSSLSASVGDRVTITCRASQDVSTAVAWYQQKPGKAPKLLIYSASFLYSGVPSRFSGSGSGTDFTLTISSLQPEDFATYYCQQSYTTPPTFGQGTKVEIKRTVAAPQAVVTQESALTTSPGETVTLTCRSSTGAVTTSNYANWVQEKPDHLFTGLIGGTNNRAPGVPARFSGSLIGDKAALTITGAQTEDEAIYFCALWYSNHWVFGGGTKLTVLGQPKAAPSVTLFPPSSEELQANKATLVCLISDFYPGAVTVAWKADSSPVKAGVETTTPSKQSNNKYAASSYLSLTPEQWKSHRSYSCQVTHEGSTVEKTVAPTECS | 1.01 nM | 0.000549 s⁻¹ | 541000 M⁻¹ s⁻¹ | – | – | –

Continued by falling Kd (VEGF [1]), values first:

Kd (VEGF [1]) | koff (VEGF [1]) | kon (VEGF [1]) | Kd (VEGF [2]) | koff (VEGF [2]) | kon (VEGF [2]) | Binder
0.675 nM | 0.000801 s⁻¹ | 1.19e+06 M⁻¹ s⁻¹ | – | – | – | DVD526 (bispecific antibody, human IgG1, lambda, DVD-Ig; N-term; VD AB070 (VEGF), C-term; VD AB073 (DLL4); HC linker long, LC linker short; also called DVD526H; DVD526L) heavy: not shown light: DIQMTQSPSSLSASVGDRVTITCRASQDVSTAVAWYQQKPGKAPKLLIYSASFLYSGVPSRFSGSGSGTDFTLTISSLQPEDFATYYCQQSYTTPPTFGQGTKVEIKRTVAAPQAVVTQESALTTSPGETVTLTCRSSTGAVTTSNYANWVQEKPDHLFTGLIGGTNNRAPGVPARFSGSLIGDKAALTITGAQTEDEAIYFCALWYSNHWVFGGGTKLTVLGQPKAAPSVTLFPPSSEELQANKATLVCLISDFYPGAVTVAWKADSSPVKAGVETTTPSKQSNNKYAASSYLSLTPEQWKSHRSYSCQVTHEGSTVEKTVAPTECS
0.311 nM | 0.00658 s⁻¹ | 2.12e+07 M⁻¹ s⁻¹ | – | – | – | DVD496 (bispecific antibody, human IgG1, kappa, DVD-Ig; N-term; VD AB070 (VEGF), C-term; VD AB072 (DLL4); HC linker long, LC linker long; also called DVD496H; DVD496L) heavy: not shown light: DIQMTQSPSSLSASVGDRVTITCRASQDVSTAVAWYQQKPGKAPKLLIYSASFLYSGVPSRFSGSGSGTDFTLTISSLQPEDFATYYCQQSYTTPPTFGQGTKVEIKRTVAAPSVFIFPPDIQMTQSSSYLSVSLGGRVTITCKASDHINNWLAWYQQKPGNAPRLLISGATSLETGVPSRFSGSGSGKDYTLSITSLQTEDVATYYCQQYWSIPLTFGAGTKLELKRTVAAPSVFIFPPSDEQLKSGTASVVCLLNNFYPREAKVQWKVDNALQSGNSQESVTEQDSKDSTYSLSSTLTLSKADYEKHKVYACEVTHQGLSSPVTKSFNRGEC
0.276 nM | 0.0123 s⁻¹ | 4.47e+07 M⁻¹ s⁻¹ | – | – | – | DVD532 (bispecific antibody, human IgG1, kappa, lambda, DVD-Ig; N-term; VD AB070 (VEGF), C-term; VD AB073 (DLL4); HC linker short, LC linker long; also called DVD532H; DVD532L) heavy: not shown light: DIQMTQSPSSLSASVGDRVTITCRASQDVSTAVAWYQQKPGKAPKLLIYSASFLYSGVPSRFSGSGSGTDFTLTISSLQPEDFATYYCQQSYTTPPTFGQGTKVEIKRTVAAPSVFIFPPQAVVTQESALTTSPGETVTLTCRSSTGAVTTSNYANWVQEKPDHLFTGLIGGTNNRAPGVPARFSGSLIGDKAALTITGAQTEDEAIYFCALWYSNHWVFGGGTKLTVLGQPKAAPSVTLFPPSSEELQANKATLVCLISDFYPGAVTVAWKADSSPVKAGVETTTPSKQSNNKYAASSYLSLTPEQWKSHRSYSCQVTHEGSTVEKTVAPTECS
0.265 nM | 0.000231 s⁻¹ | 871000 M⁻¹ s⁻¹ | – | – | – | DVD502 (bispecific antibody, human IgG1, kappa, DVD-Ig; N-term; VD AB070 (VEGF), C-term; VD AB072 (DLL4); HC linker long, LC linker short; also called DVD502H; DVD502L) heavy: not shown light: DIQMTQSPSSLSASVGDRVTITCRASQDVSTAVAWYQQKPGKAPKLLIYSASFLYSGVPSRFSGSGSGTDFTLTISSLQPEDFATYYCQQSYTTPPTFGQGTKVEIKRTVAAPDIQMTQSSSYLSVSLGGRVTITCKASDHINNWLAWYQQKPGNAPRLLISGATSLETGVPSRFSGSGSGKDYTLSITSLQTEDVATYYCQQYWSIPLTFGAGTKLELKRTVAAPSVFIFPPSDEQLKSGTASVVCLLNNFYPREAKVQWKVDNALQSGNSQESVTEQDSKDSTYSLSSTLTLSKADYEKHKVYACEVTHQGLSSPVTKSFNRGEC
0.189 nM | 0.000169 s⁻¹ | 894000 M⁻¹ s⁻¹ | – | – | – | DVD490 (bispecific antibody, human IgG1, kappa, DVD-Ig; N-term; VD AB070 (VEGF), C-term; VD AB072 (DLL4); HC linker short, LC linker short; also called DVD490H; DVD490L) heavy: not shown light: DIQMTQSPSSLSASVGDRVTITCRASQDVSTAVAWYQQKPGKAPKLLIYSASFLYSGVPSRFSGSGSGTDFTLTISSLQPEDFATYYCQQSYTTPPTFGQGTKVEIKRTVAAPDIQMTQSSSYLSVSLGGRVTITCKASDHINNWLAWYQQKPGNAPRLLISGATSLETGVPSRFSGSGSGKDYTLSITSLQTEDVATYYCQQYWSIPLTFGAGTKLELKRTVAAPSVFIFPPSDEQLKSGTASVVCLLNNFYPREAKVQWKVDNALQSGNSQESVTEQDSKDSTYSLSSTLTLSKADYEKHKVYACEVTHQGLSSPVTKSFNRGEC
0.162 nM | 0.000213 s⁻¹ | 1.31e+06 M⁻¹ s⁻¹ | – | – | – | DVD508 (bispecific antibody, human IgG1, kappa, DVD-Ig; N-term; VD AB070 (VEGF), C-term; VD AB072 (DLL4); HC linker short, LC linker long; also called DVD508H; DVD508L) heavy: not shown light: DIQMTQSPSSLSASVGDRVTITCRASQDVSTAVAWYQQKPGKAPKLLIYSASFLYSGVPSRFSGSGSGTDFTLTISSLQPEDFATYYCQQSYTTPPTFGQGTKVEIKRTVAAPSVFIFPPDIQMTQSSSYLSVSLGGRVTITCKASDHINNWLAWYQQKPGNAPRLLISGATSLETGVPSRFSGSGSGKDYTLSITSLQTEDVATYYCQQYWSIPLTFGAGTKLELKRTVAAPSVFIFPPSDEQLKSGTASVVCLLNNFYPREAKVQWKVDNALQSGNSQESVTEQDSKDSTYSLSSTLTLSKADYEKHKVYACEVTHQGLSSPVTKSFNRGEC
